From patent US20240343799A1

Tests used:
huCD79b-N (human) [1] = biological target: huCD79b-N (human) (UniProt P40259); experiment: BLI (ForteBio), antibody loaded on sensor, antigen in solution
huCD79b-N (human) [2] = biological target: huCD79b-N (human) (UniProt P40259); experiment: BLI (ForteBio)

Binder	Kd (huCD79b-N (human) [1])	Kd (huCD79b-N (human) [2])
A7v14b (antibody, V domains shown) VH: EVQLVQSGAEVKKPGASVKVSCKASGYTFTTYYMNWVRQAPGQGLEWIGMIDPSDSETHYNQKFQGRATLTVDTSTSTAYLELSSLRSEDTAVYYCSRSLAFWGQGTLVTVSS VL: DIVMTQTPLSLPVTPGQPASISCKSSQSLLDSDGKTYLNWLLQKPGQSPQSLIYLVSKLDSGVPDRFSGSGSGTDFTLKISRVEAEDVGVYYCWQGTHFPQTFGQGTKVEIK	8.56 nM	–
hz11G10.9.p1 (antibody, V domains shown) VH: QVQLVQSGAEVKKPGASVKVSCKASGYTFTDYWVNWVRQAPGQGLEWMGMIDPSDSETHYNQMFNDRVTMTVDTSTSTVYMELSSLRSEDTAVYYCTRSNYYWGQGTLVTVSS VL: DIVMTQTPLSLSVTPGQPASISCKSSQSLLDSEGKTYLNWLLQKPGQSPQSLIYLVSKLDSGVPDRFSGSGSGTDFTLKISRVEAEDVGVYYCWQGTHFPLTFGGGTKVEIK	3.4 nM	–
hz34F1.14 (antibody, V domains shown) VH: QVQLVQSGAEVKKPGASVKVSCKASGYSFTTYWMNWVRQAPGQGLTWMGMIDPSDSETHYNHLFKDRVTMTVDKSTSTAYMELSSLRSEDTAVYYCTRAIGYWGQGTLVTVSS VL: DVVMTQSPLSLPVTLGQPASISCKSSLSLLDSEGKTYLNWFQQRPGQSPRPLISLVSKLDSGVPDRFSGSGSGTDFTLKISRVEAEDVGVYYCWQGTHFPLTFGGGTKVEIK	8.07 nM	–

These reach a lower Kd (huCD79b-N (human) [1]). Values come first.

Kd (huCD79b-N (human) [1])	Kd (huCD79b-N (human) [2])	Binder
3.22 nM	3.1 nM	polmab (antibody, human IgG1, kappa, V domains shown) VH: EVQLVESGGGLVQPGGSLRLSCAASGYTFSSYWIEWVRQAPGKGLEWIGEILPGGGDTNYNEIFKGRATFSADTSKNTAYLQMNSLRAEDTAVYYCTRRVPIRLDYWGQGTLVTVSS VL: DIQLTQSPSSLSASVGDRVTITCKASQSVDYEGDSFLNWYQQKPGKAPKLLIYAASNLESGVPSRFSGSGSGTDFTLTISSLQPEDFATYYCQQSNEDPLTFGQGTKVEIKR
0.275 nM	–	hz38D9B3.11 (antibody, V domains shown) VH: QVQLVQSGSELKKPGASVKVSCKASGYTFTDYSMHWVRQAPGQGLEWMGWINTETGEPSYADDFKGRFVFSLDTSVSTAYLQISSLKAEDTAVYYCYYGPYWGQGTLVTVSS VL: EIVLTQSPATLSLSPGERATLSCKASQSVDHDVDSYMDWYQQKPGQAPRLLIYSASNLESGIPARFSGSGSGTDFTLTISSLEPEDFAVYYCQQINEYPYTFGGGTKVEIK
